B1: glmS ribozyme (parent)
chain: AUAAAAGCGCCAGAACUACAGAAAUGUAGUUGACGAGGAGGAGGUUUAUCGAAUUUUCGGCGGAUGCCUCCAAA

Common to all, as to settings: with glucosamine-6-phosphate
Variants of B1 are the subject of data set [1]. Description: self-cleavage kobs at 40 uM GlcN6P; higher = faster cleavage; RNA array. In a few lines: (§1)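 Sequenced MiSeq chips were the platform: E. coli RNA polymerase transcribed barcoded ribozyme variants on them in situ, and a hybridised Cy3 probe tracked these at 37 °C. After glucosamine-6-phosphate (40 μM to 10 mM) in HEPES/KCl/Mg(OAc)2 buffer was flowed in, tiles were imaged over ~14 h. Signals normalised to baseline and to non-cleaving reference variants were reduced to per-tile medians and fit to one- or two-exponential decays to obtain kobs. kcat and KM were derived through weighted Michaelis–Menten fits across concentrations.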

Variants of B1 are the subject of data set [2]. Description: self-cleavage kobs at 160 uM GlcN6P; higher = faster cleavage; RNA array. In a few lines:
as §1

In data set [3] the parent is B1. Description: self-cleavage kobs at 640 uM GlcN6P; higher = faster cleavage; RNA array. In a few lines:
as §1

Variants of B1 are the subject of data set [4]. Description: self-cleavage kobs at 2500 uM GlcN6P; higher = faster cleavage; RNA array. In a few lines: as §1
The variants in data set [5] derive from B1. The experiment in a line: self-cleavage kobs at 10000 uM GlcN6P; higher = faster cleavage; RNA array. In a few lines: as §1

± gives the standard error. Variants at the floor of the assay were thinned out. Bounds are passed on as bounds.

With AUAAAAGCGCCAGAACUACAGAAAUGUAGUUGACGAGGAGGAGGUUUAUCGAAUUUGCGGCGGAUGCCUGCAAA, the “self-cleavage kobs at 40 uM GlcN6P” value with glucosamine-6-phosphate [1] is 3.7e-05 ± 9.8e-06 s⁻¹. Further, the “self-cleavage kobs at 160 uM GlcN6P” value with glucosamine-6-phosphate [2] stood at 0.00016 ± 3e-05 s⁻¹. Moreover, in the data set with glucosamine-6-phosphate [3], the “self-cleavage kobs at 640 uM GlcN6P” value was 0.000103 ± 1.5e-05 s⁻¹. For the same variant, the “self-cleavage kobs at 2500 uM GlcN6P” value in the data set with glucosamine-6-phosphate [4] was 8.84e-05 ± 1.5e-05 s⁻¹. The “self-cleavage kobs at 10000 uM GlcN6P” value with glucosamine-6-phosphate [5] was found to be 2.33e-05 ± 1e-05 s⁻¹.
Take AUAAAAGCGUCAGAACUACAGAAAUGUAGUUGACCAGGAGGAGGUUUAUCGUAUUUUCGGCGGAUGCCUCCAAA: the “self-cleavage kobs at 40 uM GlcN6P” value in the data set with glucosamine-6-phosphate [1] was less than 1e-05 s⁻¹.
On to AUAAAAGCGGCAGAAGUACAGAAAUGUAGUUGAUGAGGAGGACGUUUAUCGCAUCUUCGGCGGAUGCCUCCAAA, for which the “self-cleavage kobs at 40 uM GlcN6P” value in the data set with glucosamine-6-phosphate [1] is less than 1e-05 s⁻¹. Moreover, the “self-cleavage kobs at 10000 uM GlcN6P” value with glucosamine-6-phosphate [5] was less than 1e-05 s⁻¹.
Regarding AUAAAGGCGUCAGAACUACAGAAAUGUAGUUGACGAGGUGGAGGUUUAUCGAAUUUUCGGCGGAUGCCUCCAAA, the “self-cleavage kobs at 40 uM GlcN6P” value with glucosamine-6-phosphate [1] is less than 1e-05 s⁻¹. The “self-cleavage kobs at 160 uM GlcN6P” value with glucosamine-6-phosphate [2] is less than 1e-05 s⁻¹. For the same variant, the “self-cleavage kobs at 2500 uM GlcN6P” value in the data set with glucosamine-6-phosphate [4] is less than 1e-05 s⁻¹. Besides, the “self-cleavage kobs at 10000 uM GlcN6P” value with glucosamine-6-phosphate [5] was less than 1e-05 s⁻¹.
With AUAAAAGCGCCAGAACUACAGAAAUGUAGUUGACGAGUAGGAGGUUGAUCGAAUUUUCGGCGGAUGCCUGCAAA, in the data set with glucosamine-6-phosphate [1], the “self-cleavage kobs at 40 uM GlcN6P” value was 0.000113 ± 3.3e-05 s⁻¹. In the data set with glucosamine-6-phosphate [5], the “self-cleavage kobs at 10000 uM GlcN6P” value was found to be 9.01e-05 ± 2.3e-05 s⁻¹.
With AUAAAAGCGCCAGAACUACAGAAAUGUAGUUGACGAGCCGGAUGUUUAUCGAAUUUGCGGCGGAUGCCUCUAAA, the “self-cleavage kobs at 40 uM GlcN6P” value with glucosamine-6-phosphate [1] is less than 1e-05 s⁻¹. The “self-cleavage kobs at 640 uM GlcN6P” value with glucosamine-6-phosphate [3] was less than 1e-05 s⁻¹. Further, the “self-cleavage kobs at 2500 uM GlcN6P” value in the data set with glucosamine-6-phosphate [4] was less than 1e-05 s⁻¹. In addition, the “self-cleavage kobs at 10000 uM GlcN6P” value in the data set with glucosamine-6-phosphate [5] is less than 1e-05 s⁻¹.
Regarding AUAAAAGCGCCAGAACUACAGAAAUGUAGUUGACGAGGAGGAGGUUUAUCGAGCUUUCGGCGGAUGCCUCCAAA, the “self-cleavage kobs at 40 uM GlcN6P” value with glucosamine-6-phosphate [1] came out at 0.000508 ± 7.8e-05 s⁻¹. For the same variant, in the data set with glucosamine-6-phosphate [2], the “self-cleavage kobs at 160 uM GlcN6P” value turned out to be 0.000991 ± 0.00024 s⁻¹. Further, in the data set with glucosamine-6-phosphate [5], the “self-cleavage kobs at 10000 uM GlcN6P” value came to 0.0169 ± 0.0033 s⁻¹.
Consider AUAAAAACGCCAGAACUACAGAAAUGUAGUUGACGAGGAGGAGGUUUAUCGCAUUUUCGGCGGAUGCCUCCAAA, for which, in the data set with glucosamine-6-phosphate [1], the “self-cleavage kobs at 40 uM GlcN6P” value is less than 1e-05 s⁻¹. In the data set with glucosamine-6-phosphate [2], the “self-cleavage kobs at 160 uM GlcN6P” value is less than 1e-05 s⁻¹. Besides, the “self-cleavage kobs at 640 uM GlcN6P” value with glucosamine-6-phosphate [3] is less than 1e-05 s⁻¹. Besides, the “self-cleavage kobs at 2500 uM GlcN6P” value in the data set with glucosamine-6-phosphate [4] is less than 1e-05 s⁻¹. The “self-cleavage kobs at 10000 uM GlcN6P” value with glucosamine-6-phosphate [5] was less than 1e-05 s⁻¹.
Turning to AUAAAAGCGCCAGAACUACAGAAAUGUAGUCGACGAGGAGGAGGUUUAACGAAUUUUCGGCGGUUGCCUCCAAA, the “self-cleavage kobs at 40 uM GlcN6P” value with glucosamine-6-phosphate [1] was less than 1e-05 s⁻¹. In the data set with glucosamine-6-phosphate [5], the “self-cleavage kobs at 10000 uM GlcN6P” value was less than 1e-05 s⁻¹.
For the variant AUAAAACCGCCAGAACUACAGAAAUGUAGUUGACGAGGAGGAUGUUUAUCGAAUUUUCGGCGGAUGCCUCCAAA, in the data set with glucosamine-6-phosphate [1], the “self-cleavage kobs at 40 uM GlcN6P” value is less than 1e-05 s⁻¹. Also, in the data set with glucosamine-6-phosphate [2], the “self-cleavage kobs at 160 uM GlcN6P” value is less than 1e-05 s⁻¹. For the same variant, the “self-cleavage kobs at 640 uM GlcN6P” value in the data set with glucosamine-6-phosphate [3] was less than 1e-05 s⁻¹. Besides, in the data set with glucosamine-6-phosphate [5], the “self-cleavage kobs at 10000 uM GlcN6P” value is less than 1e-05 s⁻¹.
Regarding AUAAAUGCGCCAGAACUACAGAAAUGUAGUUGACGAGGAGGAGGUUUAUCGAAUUUUCGGCAGAUGCCUCCAAA, in the data set with glucosamine-6-phosphate [1], the “self-cleavage kobs at 40 uM GlcN6P” value was less than 1e-05 s⁻¹. In addition, the “self-cleavage kobs at 160 uM GlcN6P” value with glucosamine-6-phosphate [2] was less than 1e-05 s⁻¹.
As for AUAAAAGCCCCAGAACUACAGAAAUGUAGUUGACGAGGAGGGGGUUUAUCGAAUUUUCGGCGGAUGCCUCCAAA, the “self-cleavage kobs at 40 uM GlcN6P” value with glucosamine-6-phosphate [1] is less than 1e-05 s⁻¹. Further, in the data set with glucosamine-6-phosphate [2], the “self-cleavage kobs at 160 uM GlcN6P” value is less than 1e-05 s⁻¹. Further, in the data set with glucosamine-6-phosphate [4], the “self-cleavage kobs at 2500 uM GlcN6P” value was less than 1e-05 s⁻¹. For the same variant, in the data set with glucosamine-6-phosphate [5], the “self-cleavage kobs at 10000 uM GlcN6P” value was less than 1e-05 s⁻¹.

Values taken from the supplement of paper PMC7125110.
